{"source": "paper PMC6704107", "about": "(2019)", "key": {"AAVR PKD1-5 S425A": {"target": "T1, AAVR PKD1-5 S425A (UniProt Q8IZA0-1 1-1049, S425A)", "T1 sequence": "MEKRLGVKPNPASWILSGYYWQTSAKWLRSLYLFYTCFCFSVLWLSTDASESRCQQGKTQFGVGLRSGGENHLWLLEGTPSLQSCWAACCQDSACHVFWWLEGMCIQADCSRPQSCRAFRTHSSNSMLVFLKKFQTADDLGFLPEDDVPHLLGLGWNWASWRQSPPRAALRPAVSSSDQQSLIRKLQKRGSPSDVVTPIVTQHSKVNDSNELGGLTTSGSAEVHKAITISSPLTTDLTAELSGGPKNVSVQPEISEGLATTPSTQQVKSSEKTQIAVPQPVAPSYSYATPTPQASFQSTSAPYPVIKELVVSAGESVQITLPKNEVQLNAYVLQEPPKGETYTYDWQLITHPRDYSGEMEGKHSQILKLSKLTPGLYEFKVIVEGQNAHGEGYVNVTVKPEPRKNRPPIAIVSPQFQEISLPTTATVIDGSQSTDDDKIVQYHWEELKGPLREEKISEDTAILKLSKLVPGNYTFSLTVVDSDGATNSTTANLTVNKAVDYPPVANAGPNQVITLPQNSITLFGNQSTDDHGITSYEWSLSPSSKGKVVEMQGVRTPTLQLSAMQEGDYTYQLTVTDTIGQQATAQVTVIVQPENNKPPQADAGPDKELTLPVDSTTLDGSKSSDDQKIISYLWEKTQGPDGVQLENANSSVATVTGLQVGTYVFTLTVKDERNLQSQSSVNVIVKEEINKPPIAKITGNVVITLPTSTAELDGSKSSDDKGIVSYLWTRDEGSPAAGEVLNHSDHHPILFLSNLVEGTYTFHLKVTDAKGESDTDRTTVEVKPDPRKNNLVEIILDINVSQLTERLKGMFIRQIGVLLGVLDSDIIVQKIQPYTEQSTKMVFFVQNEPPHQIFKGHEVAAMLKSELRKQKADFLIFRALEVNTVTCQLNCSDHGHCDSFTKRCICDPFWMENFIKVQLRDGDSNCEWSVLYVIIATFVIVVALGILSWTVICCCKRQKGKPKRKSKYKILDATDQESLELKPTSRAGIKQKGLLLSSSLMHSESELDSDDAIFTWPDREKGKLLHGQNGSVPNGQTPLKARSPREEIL", "test": "SPR"}, "AAVR PKD1-5 D435A": {"target": "T2, AAVR PKD1-5 D435A (UniProt Q8IZA0-1 1-1049, D435A)", "T2 sequence": "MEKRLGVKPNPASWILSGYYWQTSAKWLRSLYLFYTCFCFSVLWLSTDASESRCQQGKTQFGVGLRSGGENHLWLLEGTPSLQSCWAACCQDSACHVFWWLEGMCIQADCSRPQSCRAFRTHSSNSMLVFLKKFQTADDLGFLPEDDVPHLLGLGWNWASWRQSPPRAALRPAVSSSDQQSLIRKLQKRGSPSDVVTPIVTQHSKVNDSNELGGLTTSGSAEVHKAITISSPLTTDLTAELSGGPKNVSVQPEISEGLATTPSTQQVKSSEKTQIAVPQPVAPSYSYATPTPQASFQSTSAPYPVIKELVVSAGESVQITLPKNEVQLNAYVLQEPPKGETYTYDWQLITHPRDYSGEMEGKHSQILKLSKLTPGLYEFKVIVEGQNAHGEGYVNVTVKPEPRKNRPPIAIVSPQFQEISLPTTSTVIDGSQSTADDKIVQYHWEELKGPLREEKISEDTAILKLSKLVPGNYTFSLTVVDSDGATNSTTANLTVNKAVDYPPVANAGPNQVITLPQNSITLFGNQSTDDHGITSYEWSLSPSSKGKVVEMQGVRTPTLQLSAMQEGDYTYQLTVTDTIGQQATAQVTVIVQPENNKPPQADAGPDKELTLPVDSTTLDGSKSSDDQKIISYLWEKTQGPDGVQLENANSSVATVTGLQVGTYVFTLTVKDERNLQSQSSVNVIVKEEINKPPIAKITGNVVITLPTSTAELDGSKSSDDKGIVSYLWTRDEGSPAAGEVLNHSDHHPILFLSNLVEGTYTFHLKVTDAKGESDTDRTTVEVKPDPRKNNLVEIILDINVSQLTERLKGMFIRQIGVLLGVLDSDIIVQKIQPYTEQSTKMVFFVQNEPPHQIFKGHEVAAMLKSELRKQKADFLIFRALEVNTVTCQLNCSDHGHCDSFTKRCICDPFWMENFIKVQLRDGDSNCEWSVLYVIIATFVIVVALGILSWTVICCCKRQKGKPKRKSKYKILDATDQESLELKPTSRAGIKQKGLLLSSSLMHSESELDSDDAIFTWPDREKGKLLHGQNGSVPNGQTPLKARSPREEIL", "test": "SPR"}}, "data": [{"binder": "Adeno-associated virus 1 (AAV1) particle, wild-type capsid (complex) MAADGYLPDWLEDNLSEGIREWWDLKPGAPKPKANQQKQDDGRGLVLPGYKYLGPFNGLDKGEPVNAADAAALEHDKAYDQQLKAGDNPYLRYNHADAEFQERLQEDTSFGGNLGRAVFQAKKRVLEPLGLVEEGAKTAPGKKRPVEQSPQEPDSSSGIGKTGQQPAKKRLNFGQTGDSESVPDPQPLGEPPATPAAVGPTTMASGGGAPMADNNEGADGVGNASGNWHCDSTWLGDRVITTSTRTWALPTYNNHLYKQISSASTGASNDNHYFGYSTPWGYFDFNRFHCHFSPRDWQRLINNNWGFRPKRLNFKLFNIQVKEVTTNDGVTTIANNLTSTVQVFSDSEYQLPYVLGSAHQGCLPPFPADVFMIPQYGYLTLNNGSQAVGRSSFYCLEYFPSQMLRTGNNFTFSYTFEEVPFHSSYAHSQSLDRLMNPLIDQYLYYLNRTQNQSGSAQNKDLLFSRGSPAGMSVQPKNWLPGPCYRQQRVSKTKTDNNNSNFTWTGASKYNLNGRESIINPGTAMASHKDDEDKFFPMSGVMIFGKESAGASNTALDNVMITDEEEIKATNPVATERFGTVAVNFQSSSTDPATGDVHAMGALPGMVWQDRDVYLQGPIWAKIPHTDGHFHPSPLMGGFGLKNPPPQILIKNTPVPANPPAEFSATKFASFITQYSTGQVSVEIEWELQKENSKRWNPEVQYTSNYAKSANVDFTVDNNGLYTEPRPIGTRYLTRPL", "values": [{"measurement": "Kd", "setting": "AAVR PKD1-5 S425A", "value": 3.88, "unit": "µM"}, {"measurement": "Kd", "setting": "AAVR PKD1-5 D435A", "value": 13.6, "unit": "µM"}]}]}
